Test results taken from patent US20050208482A1, “Tat-based immunomodulatory compositions and methods for their discovery and use” (priority 2004, published 2005).

B1: Tat: conventional immunosuppressive HIV-1 trans-activator of transcription protein, recombinant (SEQ ID NO. 2) (protein)
chain: MEPVDPRLEPWKHPGSQPKTACTTCYCKKCCFHCQVCFTKKALGISYGRKKRRQRRRAPEDSQTHQVSPPKQPAPQFRGDPTGPKESKKKVERETETHPVD
modifications: Human immunodeficiency virus type 1

Tests used:
[1] = test system: monocytes committed to the dendritic cell (DC) lineage; assay: Tat induction of CD86 on monocytes committed to the DC lineage (FACScan); assay type: cell-based, Human; conditions: committed DCs cultured overnight; Tat 50 nM, LPS 100 ng/mL; Control MFI 9
Procedure: An additional embodiment of the present invention is that Tat induces monocytes committed to the dendritic cell (DC) lineage to enlarge into activated, CD86+DC APCs (FIG. 1). Human monocytes enriched from PBMCs by Percoll density gradient separation and adherance to anti-CD14 coated magnetic beads (Dynabeads M-450, Dynal Biotech) were committed to differentiate into DCs through five days of culture in GM-CSF (100 ng/mL) and IL-4 (100 ng/mL). Committed DCs were cultured overnight either in medium alone (Control), LPS (100 ng/mL), or Tat (50 nM), after which they were stained with an anti-CD86 antibody (BD Pharmingen) and analyzed by FACScan for CD86 induction (left panel) or generalized activation (right panel, enlargement into box R2, shown for Tat-stimulated cells). The MFIs for CD86 expression are 9 (Control), 30 (LPS), and 187 (Tat), CD86 being a specific determinant of DC activation.

antibody response to p24 = assay: Suppression of humoral immune response to HIV-1 p24 in immunized mice (ELISA); assay type: in vivo; conditions: 5 μg p24 + 5 μg Tat in complete Freund's adjuvant s.c.
Procedure: Tat suppresses the antigen-specific humoral immune response to HIV-1 p24 (FIG. 4). At week 0, mice (4 in each group) were immunized with 5 μg recombinant p24 protein (Chiron, Emeryville, Calif.) and either 5 μg recombinant Tat protein (PT) or 5 μg recombinant ox-Tat* protein (Ag) mixed in 100 μL complete Freund's adjuvant and administered subcutaneously in the flank. Following immunization, sera were collected every other week for 10 weeks and assayed for a specific antibody response to p24 by commercially available ELISA (Abbott Laboratories, Abbott Park, Ill.). […] This response was maintained for at least 6 weeks. The antibody titers at 6 weeks are approximately ten times greater than at week 2 due to maturation of the immune response.

T cells = assay: T cell activation by Tat; assay type: cell-based; conditions: 50 nM Tat
Human monocytes = assay: Tat activation of monocytes/macrophages, Fas ligand (FasL) induction by flow cytometry; assay type: cell-based
Procedure: Tat activation of monocytes is dose-dependent and saturatable (FIG. 3). Human monocytes were cultured in increasing concentrations of recombinant Tat for six days at which time they were assayed for Fas ligand (FasL) induction as a measure of activation by using flow cytometry (FACScan, Becton Dickinson) to quantitate the intensity of staining (mean fluorescence index (MFI)) with an anti-Fas ligand monoclonal antibody (Nok 1, BD Pharmingen).

CD4+T cells = assay: Direct apoptosis of CD4+ T cells by Tat; assay type: cell-based
Human PBMCs = assay type: cell-based

Row | Molecule | MFI for CD86 expression [1] | duration for which suppression of p24 antibody response was maintained (antibody response to p24) | p24 antibody titer at 2 weeks (antibody response to p24; compared with ox-Tat* control) | T cell activation (T cells) | concentration of Tat that triggers the effect on the macrophages (Human monocytes; FasL-inducing macrophage effect) [pM] | plateau stimulatory concentration for APCs (Human monocytes; six days culture, FasL MFI, higher concentrations did not increase MFI) [nM] | concentration required to initiate direct apoptosis of CD4+T cells (CD4+T cells) | proliferation (stimulation index) relative to antigen treatment alone (Human PBMCs) [%] | reversal of Tat suppression, proliferation as % of control (Human PBMCs; with further addition of anti-IL-10 and anti-IL-6 antibodies to the cultures)
1 | lipopolysaccharide [LPS, reference compound] | 30 | – | – | – | – | – | – | – | –
2 | B1 | 187 | at least 6 weeks | completely suppressed | could not be activated | 500 | 50 | approximately 500 nM | 141 | > 95 % of control
